What was measured:
Details in all cases: 20 nM; 72 h
[1] = system: MCF10A; test: 5+ nucleoli phenotype percent effect (relative to siNT 0% and siKIF11 100%); higher = more cells with five or more nucleoli
Procedure: (§1)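 After 72 h, cells were fixed and stained with Hoechst and anti-fibrillarin, and nucleoli per nucleus were counted with CellProfiler. Values are plate-adjusted percent effect for the one-nucleolus and 5+ nucleoli phenotypes, normalised to siNT (0%) and to the positive controls siNOL11 or siKIF11 (100%), as the mean of biological triplicates. Percent viability is the nuclei count relative to siNT.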

[2] = system: MCF10A; test: percent viability (nuclei count relative to siNT); higher = more viable cells
Procedure: as §1

[3] = system: MCF10A; test: one-nucleolus phenotype percent effect (relative to siNT 0% and siNOL11 100%); higher = more cells with one nucleolus (ribosome biogenesis inhibition)
Procedure: as §1

Sequence	5+ nucleoli phenotype percent effect [1] [%]	percent viability [2] [%]	one-nucleolus phenotype percent effect [3] [%]
CUGGACUUUGAUCUUGCCAUAA [hsa-miR-8058]	-11.1	58.9	32.1
CUGGAGAUAUGGAAGAGCUGUGU [hsa-miR-1270]	-41.4	34.1	38.6
CUGGAGUCUAGGAUUCCA [hsa-miR-4309]	-25.6	33.2	33.6
CUGGAUGGCUCCUCCAUGUCU [hsa-miR-432-3p]	-33.6	16.2	62
CUGGCAGGGGGAGAGGUA [hsa-miR-7150]	0.85	43.9	46.7
CUGGCCCUCUCUGCCCUUCCGU [hsa-miR-328]	47.4	64	-8.63
CUGGCCUCUUCUUUCUCCUAG [hsa-miR-6878-3p]	96	45.7	-7.63
CUGGGACAGGAGGAGGAGGCAG [hsa-miR-4298]	39.2	67.8	-17.4
CUGGGAGAAGAGUGGUGAAGA [hsa-miR-6788-5p]	-4.55	24.9	10
CUGGGAGAAGGCUGUUUACUCU [hsa-miR-30c-2-3p]	-29.4	21.9	45.5
CUGGGAGAGGGUUGUUUACUCC [hsa-miR-30c-1-3p]	-21.9	13.1	23.4
CUGGGAGGGGCUGGGUUUGGC [hsa-miR-6779-5p]	2.1	36.8	10.8
CUGGGAGGUCAAGGCUGCAGU [hsa-miR-1273h-5p]	11.3	38.1	11.3
CUGGGAGGUGGAUGUUUACUUC [hsa-miR-30b-3p]	-27.8	12.9	39.4
CUGGGAGGUGUGAUAUCGUGGU [hsa-miR-3689a-3p]	27.1	12.5	27.5
CUGGGAGGUGUGAUAUUGUGGU [hsa-miR-3689b-3p]	-12.6	11.3	33.2
CUGGGAGGUGUGAUAUUGUGGU [hsa-miR-3689c]	-32.9	9.66	44
CUGGGAUCUCCGGGGUCUUGGUU [hsa-miR-769-3p]	-14.5	40.7	18
CUGGGCCCGCGGCGGGCGUGGGG [hsa-miR-6724-5p]	19.6	74.9	-9.05
CUGGGCUCGGGACGCGCGGCU [hsa-miR-4674]	-33.5	31.3	18.5
CUGGGGAGAUCCUCGAGGUUGG [hsa-miR-3150a-3p]	-16.4	18.9	23.4
CUGGGGAGUGGCUGGGGAG [hsa-miR-6763-5p]	-2.28	29.7	30.5
CUGGGGGACGCGUGAGCGCGAGC [hsa-miR-4665-5p]	9.32	31.2	18.8
CUGGGGGGAGGAGACCCUGCU [hsa-miR-7109-5p]	-2.63	38.9	29.9

Sequence	5+ nucleoli phenotype percent effect [1] [%]	percent viability [2] [%]	one-nucleolus phenotype percent effect [3] [%]
CUGGGGGUGGGGGGCUGGGCGU [hsa-miR-6803-5p]	16	86.6	-13.5
CUGGGGUUCUGAGACAGACAGU [hsa-miR-3170]	-46.2	9.55	40.9
CUGGGUGAGGGCAUCUGUGGU [hsa-miR-6736-5p]	-27	24.3	34.4
CUGGGUUGGGCUGGGCUGGG [hsa-miR-4507]	-11.1	28.4	-1.41
CUGGUACAGGCCUGGGGGACAG [hsa-miR-150-3p]	1.02	66.2	11
CUGGUUUCACAUGGUGGCUUAG [hsa-miR-29b-2-5p]	7.64	43.4	-3.17
CUGUAAUAUAAAUUUAAUUUAUU [hsa-miR-2054]	28	168	-17.6
CUGUACAACCUUCUAGCUUUCC [hsa-let-7c-3p]	-7.45	74.2	-4.89
CUGUACAGCCUCCUAGCUUUCC [hsa-let-7a-2-3p]	-34.3	43.3	2.44
CUGUACAGGCCACUGCCUUGC [hsa-let-7g-3p]	-28.3	55.1	-2.69
CUGUAUGCCCUCACCGCUCA [hsa-miR-675-3p]	-14.5	37.8	0.624
CUGUCCUAAGGUUGUUGAGUU [hsa-miR-676-3p]	29.3	20.8	-12
CUGUGCGUGUGACAGCGGCUGA [hsa-miR-210]	-13.9	56.6	-1.99
CUGUGGGCUCAGCGCGUGGGG [hsa-miR-4322]	-30.6	31.3	28.2
CUGUGGGCUCAGCUCUGGG [hsa-miR-4265]	-38.1	27.1	42.3
CUGUUGCCACUAACCUCAACCU [hsa-miR-744-3p]	-44.1	56	27.3
CUUAGACUGCCAGACUCCCUGA [hsa-miR-7702]	59.3	163	-29.9
CUUAGAUUAGAGGAUAUUGUU [hsa-miR-8061]	58.8	73.7	-12.7
CUUAGCAGGUUGUAUUAUCAUU [hsa-miR-374b-3p]	-9.55	67.5	-6.79
CUUAUAUCAGAGGCUGUGGG [hsa-miR-6083]	-34.4	40.8	28.6
CUUAUCAGAUUGUAUUGUAAUU [hsa-miR-374a-3p]	33	160	-24.3
CUUCCAGACGCUCCGCCCCACGUCG [hsa-miR-3180-5p]	28.4	67.4	-9.39
CUUCCCCCCAGUAAUCUUCAUC [hsa-miR-3679-3p]	-16.6	88.6	4.01
CUUCCGCCCCGCCGGGCGUCG [hsa-miR-718]	30.6	69	-13.8

— the supplement of paper PMC10899765
